Where no end group is shown, it is not given here. Me3 = trimethyl-lysine
T1: huUHRF1-PHD(296–367), PHD finger of human UHRF1 with the additional N-terminal zinc finger (human, UniProt Q96T88 296-367)
T1 construct: Vector pHGGWA (Gateway); also called ICBP90 PHD finger
T1 sequence (looked up): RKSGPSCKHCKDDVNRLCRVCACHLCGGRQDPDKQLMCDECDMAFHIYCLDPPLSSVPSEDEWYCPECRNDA

T2: huUHRF1-PHD(296–367) D334A (human, UniProt Q96T88 296-367, D334A)
T2 sequence (looked up): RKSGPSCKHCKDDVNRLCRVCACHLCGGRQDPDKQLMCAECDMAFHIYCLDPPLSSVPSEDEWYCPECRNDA

T3: huUHRF1-PHD(296–367) D337A (human, UniProt Q96T88 296-367, D337A)
T3 sequence (looked up): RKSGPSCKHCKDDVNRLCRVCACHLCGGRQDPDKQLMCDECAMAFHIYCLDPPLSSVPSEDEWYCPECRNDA


Key:
Conditions in all cases: both partners purified
[1] = molecular target: T1, huUHRF1-PHD(296–367), PHD finger of …; assay: ITC; 20°C; histone peptides (1–12Y, 1.5–2 mM) injected into huUHRF1-PHD (0.12–0.18 mM); 20 mM Tris pH 7, 150 mM NaCl, 0.5 mM TCEP, 25 µM ZnCl2, 0.1 mM PMSF
[2] = molecular target: T2, huUHRF1-PHD(296–367) D334A; assay: as above
[3] = molecular target: T3, huUHRF1-PHD(296–367) D337A; assay: as above
[4] = molecular target: T1, huUHRF1-PHD(296–367), PHD finger of …; assay: crystal structure; huUHRF1-PHD(296–367) at 606 µM with a 10-fold excess of H3 peptide (1–8); vapor diffusion at 17°C, 0.1 M Tris pH 8.5, 0.2 M MgCl2, 30% PEG 4000; 1.95 Å

Row | Binder | Kd [1] [µM] | dH [1] [kcal/mol] | Kd [2] [µM] | Kd [3] [µM] | binding result [4]
1 | ARTKQTARKSTGY (histone H3 N-terminal tail, residues 1-12; tyrosine after residue 12, read from the label '1–12Y'; also called unmodified H3; H3K4me0) [histone H3 peptide (1–12Y), unmodified] | 7.9 | -17.6 | > 500 | ~70 | –
2 | ARTKQTAR (peptide, UniProt P68431 2-9, looked up, histone H3 N-terminal tail, residues 1-8 (five of the eight seen in the map); also called unmodified histone H3 peptide; histone H3 tail) [short histone H3 peptide including residues 1–8, unmodified] | – | – | – | – | binds

Continued, values first:

Row | Kd [1] [µM] | dH [1] [kcal/mol] | Kd [2] [µM] | Kd [3] [µM] | binding result [4] | Binder
3 | 17 | -14.1 | – | – | – | ARTAQTARKSTGY (histone H3 N-terminal tail, residues 1-12 with K4A; tyrosine after residue 12, read from the label '1–12Y'; also called H3K4A) [histone H3 peptide (1–12Y) with K4 mutated to alanine]
4 | 25.9 | -11.6 | – | – | – | ARTK(Me3)QTARKSTGY (histone H3 N-terminal tail, residues 1-12; tyrosine after residue 12, read from the label '1–12Y'; also called H3K4me3) [histone H3 peptide (1–12Y) with trimethylated K4]

— paper PMC3214078, “The PHD Finger of Human UHRF1 Reveals a New Subgroup of Unmethylated Histone H3 Tail Readers” (PLoS ONE, 2011)
